Legend:
[1] = biological target: T cell receptors of the mouse p60217-225-specific CD8+ T cell line (mouse); assay: cell-based or functional assay
[2] = biological target: T cell receptors of the mouse LLO91-99-specific CD8+ T cell line (mouse); assay: cell-based or functional assay
[3] = biological target: T cell receptors of the mouse LLO91-99-specific CD8+ T cell line (mouse); assay: flow cytometry, tetramer staining at 37 C, 1 h incubation
[4] = biological target: T cell receptors of the mouse LLO91-99-specific CD8+ T cell line (mouse); assay: flow cytometry, tetramer staining at 37 C, 8 h incubation
[5] = biological target: T cell receptors of the mouse LLO91-99-specific CD8+ T cell line (mouse); assay: flow cytometry, tetramer staining at 37 C, column headed 2 h
[6] = biological target: T cell receptors of the mouse p60217-225-specific CD8+ T cell line (mouse); assay: flow cytometry, tetramer staining of CD8+ T cell line
[7] = biological target: T cell receptors of the mouse LLO91-99-specific CD8+ T cell line (mouse); assay: as above
[8] = biological target: T cell receptors of the human Flu-specific (Flu58-66) CD8+ T cell line (human); assay: flow cytometry, tetramer staining at 37 C, 24 h incubation
[9] = biological target: T cell receptors of the human Flu-specific (Flu58-66) CD8+ T cell line (human); assay: flow cytometry, tetramer staining at 37 C, 1 h incubation
[10] = biological target: T cell receptors of the human Flu-specific (Flu58-66) CD8+ T cell line (human); assay: flow cytometry, tetramer staining at 37 C, 8 h incubation
[11] = biological target: T cell receptors of the human Flu-specific (Flu58-66) CD8+ T cell line (human); assay: flow cytometry, tetramer staining at 37 C, column headed 2 h
[12] = biological target: T cell receptors of the human Flu-specific (Flu58-66) CD8+ T cell line (human); assay: flow cytometry, tetramer staining of CD8+ T cell line

Substance: 225Ac-labeled LLO91 tetramer (225Ac-DOTA-biotin, LLO91/H-2K^d monomers, streptavidin) (from UniProt P61769 21-119; P22629 37-163; P01902 22-305) (peptide-MHC)
- IFN-γ ELISPOT, spots, non-treated vs treated with 10 nCi/ml for 72 hr (specific IFN-γ spots (treated)) [1]: 105
- cell killing (ED50) [1]: 100 to 200 nCi/ml
- IFN-γ ELISPOT, spots, non-treated vs treated with 10 nCi/ml for 72 hr (specific IFN-γ spots (treated)) [2]: 83
- cell killing (ED50) [2]: 4 to 8 nCi/ml

Substance: LLO91-99/H-2K^d tetramer (fluorescent, non-radiolabeled) (from UniProt P61769 21-119; P22629 37-163; P01902 22-305) (peptide-MHC)
- % tetramer binding of CD8+ T cells [3]: 76%
- % tetramer binding of CD8+ T cells [4]: 63%
- % tetramer binding of CD8+ T cells [5]: 75%
- % of CD8+ T cells stained with the tetramer [6]: 1.3%
- % of CD8+ T cells that bound the tetramer [7]: 76%

Substance: LMP1/HLA-A2 tetramer (PE- or FITC-streptavidin, non-radiolabeled) (from UniProt P61769 21-119; P22629 37-163) (peptide-MHC)
- % tetramer binding of CD8+ T cells [8]: 1%
- % tetramer binding of CD8+ T cells [9]: 0.9%
- % tetramer binding of CD8+ T cells [10]: 1.5%
- % tetramer binding of CD8+ T cells [11]: 1.2%
- % of CD8+ T cells stained with the tetramer [12]: 1%

Substance: p60217-225/H-2K^d tetramer (from UniProt P61769 21-119; P22629 37-163; P01902 22-305) (peptide-MHC)
- % of CD8+ T cells stained positive for the tetramer [6]: 70%
